The target in one assay is Trp2/H-2Kb (;mouse, biotin on the biotinylation tag (BirA)). Kind of assay: SPR.
Another assay addresses NY-ESO1/A2 (;human, UniProt A*02:01, biotin on the biotinylation tag (BirA)). Nature of the assay: SPR.

B1: IgG2a #13 (antibody, V domains shown)
VH: EVLLQQSGPELVKPGASVKIPCKASGYTFTDYYMDWVKQSHGKSLEWIGLINPNNGGTVYNQKFKGKATLTVDKSSSAAYMEVRSLTSEDTAVYYCARKPYTGHPAWFAYWGQGTLVTVSA
VL: DIQVTQSSSSFSVSLGDRVTITCKASEDIYNRLAWYQQKPGNAPRLLISGATSLETGVPDRFSGSGSRKDYTLIITSLQTEDVATYYCQQYYAFPLTFGAGTKLELK
In the case of B1, the affinity with Trp2/H-2Kb, expressed as Kd, was 2.5 nM. This lies in the single-digit nanomolar range.

B2: N5 (scFv)
chain: EVQLLESGGGLVQPGGSLRLSCAASGFTFSTYQMSWVRQAPGKGLEWVSGIVSSGGSTAYADSVKGRFTISRDNSKNTLYLQMNSLRAEDTAVYYCAGELLPFYGMDYWGQGTTVTVSQSELTQPRSVSGSPGQSVTISCTGTLRDVGGYNYVSWYQQHPGKAPKLIIHDVIERSSGVPDRFSGSKSGNTASLTISGLQAEDEADYYCWSAAMAYGVFGTGTDVTVL
Turning to B2, in the assay with NY-ESO1/A2, the equilibrium dissociation constant (Kd) – broadly, the equilibrium constant for the complex coming apart – came to 2 nM. This lies in the single-digit nanomolar range.
